Assay results reported in patent publication US20200317768A1 (published 2020).

T1: cynomolgus monkey FcγRIIa3 extracellular domain with C-terminal His-tag (cynomolgus monkey)
T1 construct: Expressed in FreeStyle 293 cells and purified; also called cyno FcγRIIa3; cynoFcgRIIa3; not shown: C-terminal His-tag
T1 chain: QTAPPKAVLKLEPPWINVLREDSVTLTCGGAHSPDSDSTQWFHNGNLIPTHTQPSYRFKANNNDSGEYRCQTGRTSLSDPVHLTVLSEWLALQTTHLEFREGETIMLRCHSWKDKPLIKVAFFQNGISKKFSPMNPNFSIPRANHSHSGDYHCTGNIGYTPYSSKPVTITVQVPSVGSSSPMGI

T2: cynomolgus monkey FcγRIIa1 extracellular domain with C-terminal His-tag (cynomolgus monkey)
T2 construct: Expressed in FreeStyle 293 cells and purified; also called cyno FcγRIIa1; cynoFcgRIIa1; not shown: C-terminal His-tag
T2 chain: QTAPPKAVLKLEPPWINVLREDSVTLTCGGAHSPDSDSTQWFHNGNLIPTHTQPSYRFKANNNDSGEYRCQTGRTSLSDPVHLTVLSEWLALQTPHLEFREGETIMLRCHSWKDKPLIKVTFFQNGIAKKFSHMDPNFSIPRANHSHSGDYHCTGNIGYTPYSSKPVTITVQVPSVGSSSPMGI

T3: cynomolgus monkey FcγRIIa2 extracellular domain with C-terminal His-tag (cynomolgus monkey)
T3 construct: Expressed in FreeStyle 293 cells and purified; also called cyno FcγRIIa2; cynoFcgRIIa2; not shown: C-terminal His-tag
T3 chain: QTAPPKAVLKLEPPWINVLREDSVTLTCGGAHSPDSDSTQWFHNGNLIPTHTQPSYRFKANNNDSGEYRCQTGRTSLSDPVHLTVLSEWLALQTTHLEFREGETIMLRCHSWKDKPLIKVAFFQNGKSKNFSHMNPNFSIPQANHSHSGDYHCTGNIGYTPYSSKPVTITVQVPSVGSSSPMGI

T4: cynomolgus monkey FcγRIIIaS extracellular domain with C-terminal His-tag (cynomolgus monkey, UniProt Q8SPW2 21-206 at identity 1.00))
T4 construct: Expressed in FreeStyle 293 cells and purified; also called cyno FcγRIIIaS; cynoFcγRIIIaS; not shown: C-terminal His-tag
T4 chain: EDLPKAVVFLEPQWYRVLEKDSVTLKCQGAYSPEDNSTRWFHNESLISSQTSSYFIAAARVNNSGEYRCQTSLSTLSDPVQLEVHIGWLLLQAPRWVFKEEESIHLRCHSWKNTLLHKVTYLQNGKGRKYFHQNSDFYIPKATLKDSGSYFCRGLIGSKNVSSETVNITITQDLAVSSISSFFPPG

T5: cynomolgus monkey FcγRIIb extracellular domain with C-terminal His-tag (cynomolgus monkey)
T5 construct: Expressed in FreeStyle 293 cells and purified; also called cyno FcγRIIb; cynoFcγRIIb; not shown: C-terminal His-tag
T5 chain: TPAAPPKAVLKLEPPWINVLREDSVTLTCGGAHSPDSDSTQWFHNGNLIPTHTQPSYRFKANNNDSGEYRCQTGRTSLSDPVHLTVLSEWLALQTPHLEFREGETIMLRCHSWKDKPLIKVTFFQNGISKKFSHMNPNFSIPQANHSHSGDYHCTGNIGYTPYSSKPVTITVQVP

T6: human FcγRIIaH extracellular domain with C-terminal His-tag (human, UniProt P12318 34-217)
T6 construct: Expressed in FreeStyle 293 cells and purified; also called human FcγRIIa (type H); FcgRIIaH; not shown: C-terminal His-tag
T6 sequence: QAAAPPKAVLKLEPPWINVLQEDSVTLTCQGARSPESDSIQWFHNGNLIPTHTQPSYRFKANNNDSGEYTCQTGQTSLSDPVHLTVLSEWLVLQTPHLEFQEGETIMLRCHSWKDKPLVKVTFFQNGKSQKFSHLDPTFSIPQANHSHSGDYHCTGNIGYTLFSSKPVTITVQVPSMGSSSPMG

T7: human FcγRIIb extracellular domain with C-terminal His-tag (human, UniProt P31994 43-217)
T7 construct: Expressed in FreeStyle 293 cells and purified; also called humanFcgRIIb; not shown: C-terminal His-tag
T7 sequence: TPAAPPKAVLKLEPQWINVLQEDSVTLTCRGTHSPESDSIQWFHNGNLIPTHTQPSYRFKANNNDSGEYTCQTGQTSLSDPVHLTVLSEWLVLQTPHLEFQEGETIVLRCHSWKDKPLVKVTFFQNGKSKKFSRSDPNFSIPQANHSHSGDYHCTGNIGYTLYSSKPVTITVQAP

T8: human FcγRIIaR extracellular domain with C-terminal His-tag (human, UniProt P12318 34-217)
T8 construct: Expressed in FreeStyle 293 cells and purified; also called human FcγRIIa (type R); FcgRIIaR; not shown: C-terminal His-tag
T8 chain: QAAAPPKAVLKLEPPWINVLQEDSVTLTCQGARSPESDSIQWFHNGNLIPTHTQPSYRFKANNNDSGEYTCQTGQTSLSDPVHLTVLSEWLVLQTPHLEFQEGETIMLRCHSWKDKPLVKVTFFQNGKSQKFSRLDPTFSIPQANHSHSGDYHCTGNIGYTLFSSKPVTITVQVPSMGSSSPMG


Experiments:
Assay in all cases: SPR (Biacore); KD of SG1 divided by KD of the variant for this FcgR;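 also: relative to parent M103205H795-SG1 carrying the SG1 human heavy chain constant region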
[1] = target: T1, cynomolgus monkey FcγRIIa3 …
Description: (§1) Regarding such interactions, KD values were calculated using the following 1:1 binding model described in BIACORE® T100 Software Handbook BR1006-48 Edition AE.
(§2) The behavior of interacting molecules according to the 1:1 binding model on BIACORE® can be described by Equation 1: Req=C·R max/(KD+C)+RI, wherein, Req is a plot of steady-state binding levels to analyte concentration. C is concentration, RI is bulk refractive index contribution in the sample, and Rmax is analyte binding capacity of the surface. When this equation is rearranged, KD can be expressed as Equation 2: KD=C·Rmax/(Req−RI)−C. KD can be calculated by substituting the values of Rmax, RI, and C into Equation 1 or Equation 2. From the current measurement conditions, RI=0, C=2 μmol/L can be used.
(§3) The variants were expressed using M103202L889-SK1 as the light chain and their affinity was analyzed.

[2] = target: T2, cynomolgus monkey FcγRIIa1 …
Description: as §1, §2, §3

[3] = target: T3, cynomolgus monkey FcγRIIa2 …
Description: as §1, §2, §3

[4] = target: T4, cynomolgus monkey FcγRIIIaS …
Description: as §1, §2, §3

[5] = target: T9, human FcγRIIIaV extracellular domain with C-terminal His-tag (human, UniProt P08637 17-208)
T9 construct: Expressed in FreeStyle 293 cells and purified; also called FcgRIIIaV; not shown: C-terminal His-tag
Description: as §1, §2, §3

[6] = target: T5, cynomolgus monkey FcγRIIb extracellular …
Description: as §1, §2, §3

[7] = target: T6, human FcγRIIaH extracellular domain …
Description: as §1, §2, §3

[8] = target: T7, human FcγRIIb extracellular domain with …
Description: as §1, §2, §3

[9] = target: T8, human FcγRIIaR extracellular domain …
Description: as §1, §2, §3

T9 sequence (P08637 17-208 F176V): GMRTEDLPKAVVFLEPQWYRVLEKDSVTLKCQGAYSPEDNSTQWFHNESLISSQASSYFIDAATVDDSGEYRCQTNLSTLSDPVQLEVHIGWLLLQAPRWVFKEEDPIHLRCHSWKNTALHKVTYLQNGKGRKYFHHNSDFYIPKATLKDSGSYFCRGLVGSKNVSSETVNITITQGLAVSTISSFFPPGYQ

Row | Binder | KD fold (SG1 = 1) [1] | KD fold (SG1 = 1) [2] | KD fold (SG1 = 1) [3] | KD fold (SG1 = 1) [4] | KD fold (SG1 = 1) [5] | KD fold (SG1 = 1) [6] | KD fold (SG1 = 1) [7] | KD fold (SG1 = 1) [8] | KD fold (SG1 = 1) [9]
1 | M103205H795-MY201 / M103202L889-SK1 (antibody, human IgG1, kappa, Fc variant of M103205H795-SG1, expressed with M103202L889-SK1 as light chain; also called MS1032LO06-MY201) heavy: QVTLKESGPVLVKPTETLTLTCTVSGIDLSHDDISWVRQAPGKGLEWVGIISYAGSTYYASWAKGRLTISKDTSKNQVVLTMTNMDPVDTATYYCARGVPAYSHGGDLWGQGTLVTVSSASTKGPSVFPLAPSSKSTSGGTAALGCLVKDYFPEPVTVSWNSGALTSGVHTFPAVLQSSGLYSLSSVVTVPSSSLGTQTYICNVNHKPSNTKVDKKVEPKSCDKTHTCPPCPAPELLNGPSVFLFPPKPKDTLMISRTPEVTCVVVDVSDEDPEVKFNWYVDGVEVHNAKTKPREEQYNSTYRVVSVLTVLHQDWLNGKEYKCKVSNKALPKPIEKTISKAKGQPREPQVYTLPPSREEMTKNQVSLTCLVKGFYPSDIAVEWESNGQPENNYKTTPPVLDSDGSFFLYSKLTVDKSRWQQGNVFSCSVMHEALHNHYTQKSLSLSP light: DIVMTQSPATLSLSPGERATLSCTSSQSVYHANWLSWFQQKPGQPPKLLIYWASTLAYGVPSRFSGSGSGTDFTLTISSLQPEDAATYYCAGGYGGGRYAFGQGTKVEIKRTVAAPSVFIFPPSDEQLKSGTASVVCLLNNFYPREAKVQWKVDNALQSGNSQESVTEQDSKDSTYSLSSTLTLSKADYEKHKVYACEVTHQGLSSPVTKSFNRGEC | 4.4 fold | 2.3 fold | 8.6 fold | 0.06 fold | 0.05 fold | 4.3 fold | 0.8 fold | 4.2 fold | 0.6 fold
2 | M103205H795-MY204 / M103202L889-SK1 (antibody, human IgG1, kappa, Fc variant of M103205H795-SG1, expressed with M103202L889-SK1 as light chain) heavy: QVTLKESGPVLVKPTETLTLTCTVSGIDLSHDDISWVRQAPGKGLEWVGIISYAGSTYYASWAKGRLTISKDTSKNQVVLTMTNMDPVDTATYYCARGVPAYSHGGDLWGQGTLVTVSSASTKGPSVFPLAPSSKSTSGGTAALGCLVKDYFPEPVTVSWNSGALTSGVHTFPAVLQSSGLYSLSSVVTVPSSSLGTQTYICNVNHKPSNTKVDKKVEPKSCDKTHTCPPCPAPELLNGPVVFLFPPKPKDTLMISRTPEVTCVVVDVSEEDPEVKFNWYVDGVEVHNAKTKPREELYNSTYRVVSVLTVLHQDWLNGKEYKCKVSNKALPKPIEKTISKAKGQPREPQVYTLPPSREEMTKNQVSLTCLVKGFYPSDIAVEWESNGQPENNYKTTPPVLDSDGSFFLYSKLTVDKSRWQQGNVFSCSVMHEALHNHYTQKSLSLSP light: DIVMTQSPATLSLSPGERATLSCTSSQSVYHANWLSWFQQKPGQPPKLLIYWASTLAYGVPSRFSGSGSGTDFTLTISSLQPEDAATYYCAGGYGGGRYAFGQGTKVEIKRTVAAPSVFIFPPSDEQLKSGTASVVCLLNNFYPREAKVQWKVDNALQSGNSQESVTEQDSKDSTYSLSSTLTLSKADYEKHKVYACEVTHQGLSSPVTKSFNRGEC | 8.8 fold | 2.5 fold | 3.6 fold | 0.1 fold | 0.07 fold | 3.2 fold | 0.5 fold | 3.5 fold | 0.4 fold
3 | M103205H795-MY202 / M103202L889-SK1 (antibody, human IgG1, kappa, Fc variant of M103205H795-SG1, expressed with M103202L889-SK1 as light chain) heavy: QVTLKESGPVLVKPTETLTLTCTVSGIDLSHDDISWVRQAPGKGLEWVGIISYAGSTYYASWAKGRLTISKDTSKNQVVLTMTNMDPVDTATYYCARGVPAYSHGGDLWGQGTLVTVSSASTKGPSVFPLAPSSKSTSGGTAALGCLVKDYFPEPVTVSWNSGALTSGVHTFPAVLQSSGLYSLSSVVTVPSSSLGTQTYICNVNHKPSNTKVDKKVEPKSCDKTHTCPPCPAPELLNGPVVFLFPPKPKDTLMISRTPEVTCVVVDVSDEDPEVKFNWYVDGVEVHNAKTKPREEQYNSTYRVVSVLTVLHQDWLNGKEYKCKVSNKALPKPIEKTISKAKGQPREPQVYTLPPSREEMTKNQVSLTCLVKGFYPSDIAVEWESNGQPENNYKTTPPVLDSDGSFFLYSKLTVDKSRWQQGNVFSCSVMHEALHNHYTQKSLSLSP light: DIVMTQSPATLSLSPGERATLSCTSSQSVYHANWLSWFQQKPGQPPKLLIYWASTLAYGVPSRFSGSGSGTDFTLTISSLQPEDAATYYCAGGYGGGRYAFGQGTKVEIKRTVAAPSVFIFPPSDEQLKSGTASVVCLLNNFYPREAKVQWKVDNALQSGNSQESVTEQDSKDSTYSLSSTLTLSKADYEKHKVYACEVTHQGLSSPVTKSFNRGEC | 7.7 fold | 5.3 fold | 8 fold | 0.09 fold | 0.09 fold | 3.9 fold | 0.6 fold | 6.5 fold | 0.9 fold
